Km, kcat and kcat/Km data for six proteins are collected here from paper PMC3209416.

Numbering of substitutions follows the chain as printed. Names may count otherwise.

Usually Km stands for the substrate concentration at which the rate is half of its maximum. Usually kcat stands for the number of substrate molecules converted per active site and unit of time at saturation. For orientation: kcat/Km means the turnover number divided by the Michaelis constant.

Substrate in this series: CCCCC(O)CC(=O)C(=O)O
Kind of series: purified protein. It is filed as biochemical, Thermotoga maritima. The following applies: retro-aldol cleavage, HEPES 100 mM pH 7.5, 34 °C.

B1: T. maritima KDPG aldolase (wt-TMA; TM KDPG aldolase) (Thermotoga maritima MSB8; N150I) (protein)
chain: MKMEELFKKHKIVAVLRANSVEEAKEKALAVFEGGVHLIEITFTVPDADTVIKELSFLKEKGAIIGAGTVTSVEQCRKAVESGAEFIVSPHLDEEISQFCKEKGVFYMPGVMTPTELVKAMKLGHTILKLFPGEVVGPQFVKAMKGPFPIVKFVPTGGVNLDNVCEWFKAGVLAVGVGSALVKGTPDEVREKAKAFVEKIRGCTE
For the protein B1, for the setting “mutant TM 8”, the Km is 49 ± 19 mM, the kcat was found to be 1.2 ± 0.3 s⁻¹ and the kcat/Km amounted to 25 ± 5 M⁻¹ s⁻¹.

B2: T. maritima KDPG aldolase (wt-TMA; TM KDPG aldolase) (Thermotoga maritima MSB8; A30V) (protein)
chain: B1 chain with A30V, I150N
Turning to B2, where the note is “mutant TM 5”, the Km is 14 ± 5 mM, the kcat was found to be 0.75 ± 0.1 s⁻¹ and the kcat/Km was 54 ± 10 M⁻¹ s⁻¹.

B3: T. maritima KDPG aldolase (wt-TMA; TM KDPG aldolase) (Thermotoga maritima MSB8; G34R/R190I/V172A) (protein)
chain: B1 chain with G34R, I150N, V172A, R190I
B3: for the setting “mutant TM 1”, the Km was 9 ± 2 mM, the kcat is 0.07 ± 0.01 s⁻¹ and the kcat/Km is 9.3 ± 1.8 M⁻¹ s⁻¹.

B4: T. maritima KDPG aldolase (wt-TMA; TM KDPG aldolase) (Thermotoga maritima MSB8; I52F/T185A/V135M) (protein)
chain: B1 chain with I52F, V135M, I150N, T185A
For the protein B4, where the note is “mutant TM 6”, the Km was 8 ± 3 mM, the kcat came out at 0.13 ± 0.02 s⁻¹ and the catalytic efficiency (kcat/Km) came out at 17 ± 6 M⁻¹ s⁻¹.

B5: T. maritima KDPG aldolase (wt-TMA; TM KDPG aldolase) (Thermotoga maritima MSB8; G83E/K9T) (protein)
chain: B1 chain with K9T, G83E, I150N
In the case of B5, under “mutant TM 2”, the Km was determined as 90 ± 20 mM, the kcat turned out to be 0.5 ± 0.1 s⁻¹ and the kcat/Km came to 5.5 ± 1 M⁻¹ s⁻¹.

B6: T. maritima KDPG aldolase (wt-TMA; TM KDPG aldolase) (Thermotoga maritima MSB8; V136M) (protein)
chain: B1 chain with V136M, I150N
For B6, for the setting “mutant TM 4”, the Km is on record as 23 ± 4 mM, the kcat was 0.36 ± 0.02 s⁻¹ and the kcat/Km is 16 ± 2 M⁻¹ s⁻¹.
